# Data published in publication PMC6362308.
# Biological target: taxol-stabilized microtubules
# Assay: co-sedimentation; 0.1 uM recombinant RECQL4 with or without 2 uM taxol-stabilized microtubules, 15 min, 20,000 g for 10 min at RT; supernatant and pellet analysed by Coomassie staining and Western blot against His6-tag (Fig 1B)
# taxol-stabilized microtubules, sequence (P68363 whole entry, chain 1 of 2): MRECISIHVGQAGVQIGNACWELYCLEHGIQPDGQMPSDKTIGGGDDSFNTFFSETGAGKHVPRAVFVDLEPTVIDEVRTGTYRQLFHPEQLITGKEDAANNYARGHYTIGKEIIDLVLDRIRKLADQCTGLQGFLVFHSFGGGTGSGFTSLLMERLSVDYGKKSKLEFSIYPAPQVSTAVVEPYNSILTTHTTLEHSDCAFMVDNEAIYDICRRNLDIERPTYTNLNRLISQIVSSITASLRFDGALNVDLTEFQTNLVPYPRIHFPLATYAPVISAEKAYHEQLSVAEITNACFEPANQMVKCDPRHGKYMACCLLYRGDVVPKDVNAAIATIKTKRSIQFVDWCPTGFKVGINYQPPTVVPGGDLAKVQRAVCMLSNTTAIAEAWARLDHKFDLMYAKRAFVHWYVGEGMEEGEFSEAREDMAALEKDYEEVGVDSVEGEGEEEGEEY
# taxol-stabilized microtubules, sequence (A8K068 whole entry, chain 2 of 2, further chain): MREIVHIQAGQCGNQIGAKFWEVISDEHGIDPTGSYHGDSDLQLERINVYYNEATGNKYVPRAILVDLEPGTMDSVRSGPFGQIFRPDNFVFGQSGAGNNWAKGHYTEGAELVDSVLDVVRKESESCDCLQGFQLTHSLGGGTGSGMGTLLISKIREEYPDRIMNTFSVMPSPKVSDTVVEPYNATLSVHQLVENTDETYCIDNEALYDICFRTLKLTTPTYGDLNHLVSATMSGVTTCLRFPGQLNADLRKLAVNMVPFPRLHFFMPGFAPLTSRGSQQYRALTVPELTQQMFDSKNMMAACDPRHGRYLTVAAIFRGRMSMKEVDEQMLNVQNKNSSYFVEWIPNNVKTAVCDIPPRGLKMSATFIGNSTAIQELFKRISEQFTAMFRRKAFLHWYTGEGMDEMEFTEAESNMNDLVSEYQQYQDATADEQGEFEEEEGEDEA
substance,measurement,value
Recombinant Xenopus RECQL4 expressed in insect cells (natural protein),percent of the protein in the pellet,100%
